Results from publication PMC3169552.

Assays:
[1] = target: His6-tagged vaccinia virus D13 (native D13) (vaccinia virus, Western Reserve strain); assay: crystal structure
[2] = target: His6-tagged vaccinia virus D13 (native D13) (vaccinia virus, Western Reserve strain); assay: negative-stain electron microscopy

His6-tagged vaccinia virus D13 (native D13) (natural protein)
stoichiometry N [1]: 3
stoichiometry N [2]: 3
